Experimental data taken from patent publication US20200392227A1 (LYVGEN BIOPHARMA, published 2020).
Like-named read-outs stand apart in the source and are kept apart here.

T1: human FcRIIB/C protein (MednaBio, E1034) (human, UniProt P31994 43-217, limits assumed)
T1 construct: Bought as FcRIIB/C; also called FcγRIIB; CD32B
T1 sequence (looked up): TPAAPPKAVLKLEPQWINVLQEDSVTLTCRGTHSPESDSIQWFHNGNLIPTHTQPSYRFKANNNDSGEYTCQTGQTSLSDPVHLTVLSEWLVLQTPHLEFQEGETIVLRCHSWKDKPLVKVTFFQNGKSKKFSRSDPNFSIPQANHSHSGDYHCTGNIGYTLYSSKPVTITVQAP

T2: human FcRIIA protein (MednaBio, E1033) (human, UniProt P12318 34-218, limits assumed)
T2 construct: Bought; also called FcγRIIA
T2 sequence (looked up): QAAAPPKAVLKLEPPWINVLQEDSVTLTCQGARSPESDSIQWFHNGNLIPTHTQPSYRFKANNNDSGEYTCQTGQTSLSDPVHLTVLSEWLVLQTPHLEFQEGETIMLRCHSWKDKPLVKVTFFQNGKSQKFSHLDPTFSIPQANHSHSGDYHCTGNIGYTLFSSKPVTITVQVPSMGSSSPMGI

T3: human FcγRIIC expressed on CHO cells (human, UniProt P31995 43-323)
T3 construct: whole, on cells
T3 sequence (looked up): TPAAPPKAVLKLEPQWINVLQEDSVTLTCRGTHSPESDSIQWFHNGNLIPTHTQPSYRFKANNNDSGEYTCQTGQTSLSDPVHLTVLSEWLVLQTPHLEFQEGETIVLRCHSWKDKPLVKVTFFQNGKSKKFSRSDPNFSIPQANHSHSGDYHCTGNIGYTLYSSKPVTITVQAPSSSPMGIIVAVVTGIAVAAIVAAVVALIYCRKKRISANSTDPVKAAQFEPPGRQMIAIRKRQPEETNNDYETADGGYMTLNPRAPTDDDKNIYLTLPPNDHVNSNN


Legend:
[1] = biological target: T4, human FcRIIIA-V158 protein (MednaBio, E1035) (human, UniProt P08637 17-208); assay: BLI
T4 construct: Bought; also called FcγRIIIA(V); FcgRIIIA(V)
Summary of the method: (§1)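 Binding was measured by biolayer interferometry on an Octet Red96 System, with commercial human Fc receptor proteins loaded at 20 μg/mL onto anti-penta-HIS biosensors. Sensors were dipped into an 8-point 1:3 dilution series of test IgG starting at 300 nM in PBS with 0.1% BSA and 0.02% Tween-20. Fcγ receptor assays ran at pH 7.2 and FcRn assays at pH 6. Kd, kon and koff came from global fitting to a 1:1 binding model.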

[2] = biological target: T5, human FcRI protein (MednaBio, E1031) (human, UniProt P12314 16-288, limits assumed); assay: BLI
T5 construct: Bought; loaded on anti-penta-HIS biosensors; also called FcγRI
Summary of the method: as §1

[3] = biological target: T1, human FcRIIB/C protein (MednaBio, E1034); assay: BLI
Summary of the method: as §1

[4] = biological target: T6, human FcRIIIB protein (MednaBio, E1037) (human, UniProt O75015 17-200); assay: BLI
T6 construct: Bought; also called FcγRIIIB; FcgRIIIB
Summary of the method: as §1

[5] = biological target: T7, human FcRIIIA-F158 protein (MednaBio, E1036) (human, UniProt P08637 17-208); assay: BLI
T7 construct: Bought; also called FcγRIIIA(F)
Summary of the method: as §1

[6] = biological target: T2, human FcRIIA protein (MednaBio, E1033); assay: BLI
Summary of the method: as §1

[7] = biological target: T8, human FcRn protein (MednaBio, E1032) (human, UniProt P55899 24-297; P61769 21-119); assay: BLI
T8 construct: Bought; assays at pH 6
Summary of the method: as §1

[8] = biological target: T3, human FcγRIIC expressed on CHO cells; assay: FACS, CHO cells expressing FcγRIIC
Experimental: FIGS. 1A-1W are charts showing binding activity of various IgG variants as indicated to different types of Fcγ receptors expressed on CHO-K1 cells at the various concentrations as indicated. The concentrations of each IgG variant, from left to right, are 0 μg/ml, 0.3 μg/ml, 1 μg/ml, 3 μg/ml, and 10 μg/ml in FIGS. 1A-1C, 1E-J, 1L-1M, 1P-1R, and 1T-1V. For FIGS. 1D, 1K, 10, 1S, and 1w the bars, from left to right, correspond to the following concentrations of IgG variant: 0.3 μg/ml, 1 μg/ml, 3 μg/ml, and 10 μg/ml.
For FACS analysis of the IgG mutants' binding to different FcγRs, FcγR overexpressing CHO cells were harvested using trypsin-EDTA and were suspended in cold staining buffer (3% BSA in PBS). Test IgG mutants, which were diluted in staining buffer, were added into the cells. The mixture was incubated 4° C. for 2 hours, and then washed twice with cold staining buffer and re-suspended in PE-labeled anti-human IgG followed by incubation at 4° C. for 2 hours. The mixture was washed twice with staining buffer and re-suspended in 2% PFA in PBS for FACS.

[9] = biological target: T4, human FcRIIIA-V158 protein (MednaBio, …); assay: BLI; remark: listed apart in the source
Summary of the method: as §1

[10] = biological target: T5, human FcRI protein (MednaBio, E1031); assay: BLI; remark: listed apart in the source
Summary of the method: as §1

[11] = biological target: T1, human FcRIIB/C protein (MednaBio, E1034); assay: BLI; remark: listed apart in the source
Summary of the method: as §1

[12] = biological target: T6, human FcRIIIB protein (MednaBio, E1037); assay: BLI; remark: listed apart in the source
Summary of the method: as §1

[13] = biological target: T7, human FcRIIIA-F158 protein (MednaBio, …); assay: BLI; remark: listed apart in the source
Summary of the method: as §1

[14] = biological target: T2, human FcRIIA protein (MednaBio, E1033); assay: BLI; remark: listed apart in the source
Summary of the method: as §1

[15] = biological target: T8, human FcRn protein (MednaBio, E1032); assay: BLI; remark: listed apart in the source
Summary of the method: as §1

T7 sequence (P08637 17-208 limits assumed): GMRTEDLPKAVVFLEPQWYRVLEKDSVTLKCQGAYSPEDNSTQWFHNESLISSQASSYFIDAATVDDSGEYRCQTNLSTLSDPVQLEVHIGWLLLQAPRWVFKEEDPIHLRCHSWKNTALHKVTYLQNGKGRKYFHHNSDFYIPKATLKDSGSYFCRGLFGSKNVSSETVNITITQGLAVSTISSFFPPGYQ
T6 sequence (O75015 17-200 limits assumed): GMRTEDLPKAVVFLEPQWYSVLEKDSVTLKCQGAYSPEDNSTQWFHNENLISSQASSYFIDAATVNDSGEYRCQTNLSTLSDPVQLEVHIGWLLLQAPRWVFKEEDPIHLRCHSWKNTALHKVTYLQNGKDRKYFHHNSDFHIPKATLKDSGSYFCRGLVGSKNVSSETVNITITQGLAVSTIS
T5 sequence (P12314 16-288 limits assumed): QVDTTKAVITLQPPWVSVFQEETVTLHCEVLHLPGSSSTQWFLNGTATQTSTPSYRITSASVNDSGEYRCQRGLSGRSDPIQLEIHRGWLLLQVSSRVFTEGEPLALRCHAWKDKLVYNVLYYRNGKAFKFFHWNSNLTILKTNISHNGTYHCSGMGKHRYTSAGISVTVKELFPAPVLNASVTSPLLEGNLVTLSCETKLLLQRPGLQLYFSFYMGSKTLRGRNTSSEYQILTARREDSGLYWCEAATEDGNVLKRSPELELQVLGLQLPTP
T4 sequence (P08637 17-208 F176V): as the sequence (P08637 17-208 limits assumed) above, with F160V counted along it

binding result [1] | Kd [2] | koff [2] | kon [2] | Kd [3] | koff [3] | kon [3] | binding result [4] | binding result [5] | Kd [6] | koff [6] | kon [6] | Kd [7] | koff [7] | kon [7] | binding result [9] | Kd [10] | koff [10] | kon [10] | Kd [11] | Binder | also measured
no binding (tested: 300 nM) | 2.1 nM | 0.0011 s⁻¹ | 540000 M⁻¹ s⁻¹ | 45 nM | 0.02 s⁻¹ | 440000 M⁻¹ s⁻¹ | no binding (tested: 300 nM) | no binding (tested: 300 nM) | 210 nM | 0.034 s⁻¹ | 160000 M⁻¹ s⁻¹ | 23 nM | 0.012 s⁻¹ | 520000 M⁻¹ s⁻¹ | – | – | – | – | – | anti-CD137 IgG4 with Fc variant G4m7 (antibody, copies: 2 + 2) heavy: not shown light: SYELTQPPSVSVSPGQTASITCSGDNIGDQYAHWYQQKPGQSPVLVIYQDKNRPSGIPERFSGSNSGNTATLTISGTQAMDEADYYCATYTGFGSLAVFGGGTKLTVLGQPKAAPSVTLFPPSSEELQANKATLVCLISDFYPGAVTVAWKADSSPVKAGVETTTPSKQSNNKYAASSYLSLTPEQWKSHRSYSCQVTHEGSTVEKTVAPTECS | binding result [8]: binds
no binding (tested: 300 nM) | 3.8 nM | 0.0028 s⁻¹ | 720000 M⁻¹ s⁻¹ | 89 nM | 0.048 s⁻¹ | 530000 M⁻¹ s⁻¹ | no binding (tested: 300 nM) | no binding (tested: 300 nM) | 260 nM | 0.1 s⁻¹ | 390000 M⁻¹ s⁻¹ | 20 nM | 0.012 s⁻¹ | 610000 M⁻¹ s⁻¹ | – | – | – | – | – | anti-CD137 IgG4 with Fc variant G4m8 (antibody, copies: 2 + 2) heavy: not shown light: SYELTQPPSVSVSPGQTASITCSGDNIGDQYAHWYQQKPGQSPVLVIYQDKNRPSGIPERFSGSNSGNTATLTISGTQAMDEADYYCATYTGFGSLAVFGGGTKLTVLGQPKAAPSVTLFPPSSEELQANKATLVCLISDFYPGAVTVAWKADSSPVKAGVETTTPSKQSNNKYAASSYLSLTPEQWKSHRSYSCQVTHEGSTVEKTVAPTECS | –
– | – | – | – | – | – | – | – | – | – | – | – | – | – | – | no binding (tested: 300 nM) | 88 nM | 0.041 s⁻¹ | 460000 M⁻¹ s⁻¹ | 180 nM | anti-CD137 IgG1 with Fc variant G1m17 (antibody, copies: 2 + 2) heavy: EVQLVQSGAEVKKPGESLRISCKGSGYSFSTYWISWVRQMPGKGLEWMGKIYPGDSYTNYSPSFQGQVTISADKSISTAYLQWSSLKASDTAMYYCARGYGIFDYWGQGTLVTVSSASTKGPSVFPLAPSSKSTSGGTAALGCLVKDYFPEPVTVSWNSGALTSGVHTFPAVLQSSGLYSLSSVVTVPSSSLGTQTYICNVNHKPSNTKVDKKVEPKSCDKTHTCPPCPAPELLSVFLFPPKPKDTLMISRTPEVTCVVVDVEHEDPEVKFNWYVDGVEVHNAKTKPREEQYNSTYRVVSVLTVLHQDWLNGKEYKCKVSNKALPAPIEKTISKAKGQPREPQVYTLPPSREEMTKNQVSLTCLVKGFYPSDIAVEWESNGQPENNYKTTPPVLDSDGSFFLYSKLTVDKSRWQQGNVFSCSVMHEALHNHYTQKSLSLSPGK light: SYELTQPPSVSVSPGQTASITCSGDNIGDQYAHWYQQKPGQSPVLVIYQDKNRPSGIPERFSGSNSGNTATLTISGTQAMDEADYYCATYTGFGSLAVFGGGTKLTVLGQPKAAPSVTLFPPSSEELQANKATLVCLISDFYPGAVTVAWKADSSPVKAGVETTTPSKQSNNKYAASSYLSLTPEQWKSHRSYSCQVTHEGSTVEKTVAPTECS | koff [11]: 0.043 s⁻¹; kon [11]: 240000 M⁻¹ s⁻¹; binding result [12]: no binding (tested: 300 nM); binding result [13]: no binding (tested: 300 nM); Kd [14]: 250 nM; koff [14]: 0.059 s⁻¹; kon [14]: 240000 M⁻¹ s⁻¹; Kd [15]: 10.7 nM; koff [15]: 0.00764 s⁻¹; kon [15]: 715000 M⁻¹ s⁻¹
– | – | – | – | – | – | – | – | – | – | – | – | – | – | – | no binding (tested: 300 nM) | 120 nM | 0.06 s⁻¹ | 500000 M⁻¹ s⁻¹ | 700 nM | anti-CD137 IgG1 with Fc variant G1m15 (antibody, copies: 2 + 2) heavy: EVQLVQSGAEVKKPGESLRISCKGSGYSFSTYWISWVRQMPGKGLEWMGKIYPGDSYTNYSPSFQGQVTISADKSISTAYLQWSSLKASDTAMYYCARGYGIFDYWGQGTLVTVSSASTKGPSVFPLAPSSKSTSGGTAALGCLVKDYFPEPVTVSWNSGALTSGVHTFPAVLQSSGLYSLSSVVTVPSSSLGTQTYICNVNHKPSNTKVDKKVEPKSCDKTHTCPPCPAPELLSVFLFPPKPKDTLMISRTPEVTCVVVDVSHEDPEEKFNWYVDGVEVHNAKTKPREEQYNSTYRVVSVLTVLHQDWLNGKEYKCKVSNKALPAPIEKTISKAKGQPREPQVYTLPPSREEMTKNQVSLTCLVKGFYPSDIAVEWESNGQPENNYKTTPPVLDSDGSFFLYSKLTVDKSRWQQGNVFSCSVMHEALHNHYTQKSLSLSPGK light: SYELTQPPSVSVSPGQTASITCSGDNIGDQYAHWYQQKPGQSPVLVIYQDKNRPSGIPERFSGSNSGNTATLTISGTQAMDEADYYCATYTGFGSLAVFGGGTKLTVLGQPKAAPSVTLFPPSSEELQANKATLVCLISDFYPGAVTVAWKADSSPVKAGVETTTPSKQSNNKYAASSYLSLTPEQWKSHRSYSCQVTHEGSTVEKTVAPTECS | koff [11]: 0.38 s⁻¹; kon [11]: 540000 M⁻¹ s⁻¹; binding result [12]: no binding (tested: 300 nM); binding result [13]: no binding (tested: 300 nM); Kd [14]: 480 nM; koff [14]: 0.11 s⁻¹; kon [14]: 230000 M⁻¹ s⁻¹; Kd [15]: 21 nM; koff [15]: 0.013 s⁻¹; kon [15]: 600000 M⁻¹ s⁻¹
– | 605 nM | 0.0617 s⁻¹ | 102000 M⁻¹ s⁻¹ | 30.7 nM | 0.0123 s⁻¹ | 401000 M⁻¹ s⁻¹ | – | – | 54.5 nM | 0.0256 s⁻¹ | 469000 M⁻¹ s⁻¹ | 21.9 nM | 0.0152 s⁻¹ | 698000 M⁻¹ s⁻¹ | – | – | – | – | – | anti-CD137 IgG4 with Fc variant G4mPE (antibody, also called G4PE; copies: 2 + 2) heavy: not shown light: SYELTQPPSVSVSPGQTASITCSGDNIGDQYAHWYQQKPGQSPVLVIYQDKNRPSGIPERFSGSNSGNTATLTISGTQAMDEADYYCATYTGFGSLAVFGGGTKLTVLGQPKAAPSVTLFPPSSEELQANKATLVCLISDFYPGAVTVAWKADSSPVKAGVETTTPSKQSNNKYAASSYLSLTPEQWKSHRSYSCQVTHEGSTVEKTVAPTECS | Kd [1]: 202 nM; koff [1]: 0.0596 s⁻¹; kon [1]: 296000 M⁻¹ s⁻¹; Kd [4]: 132 nM; koff [4]: 0.0579 s⁻¹; kon [4]: 437000 M⁻¹ s⁻¹; Kd [5]: 145 nM; koff [5]: 0.0678 s⁻¹; kon [5]: 468000 M⁻¹ s⁻¹
